Reference: patent US11278600B2, “Human alpha-galactosidase variants” (Codexis, Inc., priority 2014, dated 2022)
Residue numbers refer to the chain shown, from its start.

B1: 668 (protein)
chain: LDNGLARTPTMGWLHWERFMCNLDCQEEPDSCISEKLFEEMAERMVTEGWKDAGYEYLCIDDCWMAPQRDSEGRLQADPQRFPHGIRQLANHVHSKGLKLGIYADVGNKTCAGFPGSFGYYDIDAQTFADWGVDLLKFDGCYCDSLENLADGYKHMSLALNRTGRPIVYSCEWPLYMWPFQKPNYTEIRQYCNHWRNFADIDDSWASIKSILDWTSRNQERIVDVAGPGGWNDPDMLVIGNFGLSWDQQVTQMALWAIMAAPLFMSNDLRAISPQAKALLQDKDVIAINQDPLGKQGYQLRKGDNFEVWERPLSGDAWAVAIINRQEIGGPRSYTIPVASLGKGVACNPACFITQLLPVKRQLGFYNWTSRLKSHINPTGTVLLQLENTMQTSLKDLL
modifications: Synthetic Polypeptide sequence of Variant No. 668 of mature Human GLA
B2: 669 (protein)
chain: B1 chain with E39M, P262S
modifications: Synthetic Polypeptide sequence of Variant No. 669 of mature Human GLA
B3: 670 (protein)
chain: B1 chain with E39M, N305L
modifications: Synthetic Polypeptide sequence of Variant No. 670 of mature Human GLA
B4: 671 (protein)
chain: B1 chain with T10P, E39M, W368A
modifications: Synthetic Polypeptide sequence of Variant No. 671 of mature Human GLA
B5: 672 (protein)
chain: B1 chain with E39M, D144Y
modifications: Synthetic Polypeptide sequence of Variant No. 672 of mature Human GLA
B6: 673 (protein)
chain: B1 chain with E39M, N377Y
modifications: Synthetic Polypeptide sequence of Variant No. 673 of mature Human GLA
B7: 674 (protein)
chain: B1 chain with E39M, P234H
modifications: Synthetic Polypeptide sequence of Variant No. 674 of mature Human GLA
B8: 675 (protein)
chain: B1 chain with E39M, M65V
modifications: Synthetic Polypeptide sequence of Variant No. 675 of mature Human GLA
B9: 676 (protein)
chain: B1 chain with W368A
modifications: Synthetic Polypeptide sequence of Variant No. 676 of mature Human GLA
B10: 677 (protein)
chain: B1 chain with E39M, M253W, S273D, P274S, K277R
modifications: Synthetic Polypeptide sequence of Variant No. 677 of mature Human GLA
B11: 640 (protein)
chain: B1 chain with T10P, E43D
modifications: Synthetic Polypeptide sequence of Variant No. 640 of mature Human GLA
B12: 678 (protein)
chain: B1 chain with E39M, M253W, A257G, K277R, Q281L, A319D
modifications: Synthetic Polypeptide sequence of Variant No. 678 of mature Human GLA
B13: 679 (protein)
chain: B1 chain with T10P, N305L
modifications: Synthetic Polypeptide sequence of Variant No. 679 of mature Human GLA

Test: HTP-analysis of yeast culture supernatants, no challenge (MUGal hydrolysis)
Assay type: biochemical
Details: activity of the variant/activity of Rd7BB (SEQ ID NO: 44)
Procedure, shortened: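 GLA variants were expressed in INVSc1 yeast grown in SD-Ura broth with glucose at 30° C., and culture supernatants were collected after 66-84 h. Supernatant was mixed with McIlvaine buffer pH 4.8 and MUGal (2 mM stock) in 50 mM citrate, 200 mM KCl, pH 4.6, incubated at 37° C. for 30-180 minutes, then quenched with sodium carbonate.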

Molecule | Relative Activity of GLA Variants After No Challenge (NC)
B1 | + (>0.5 to 1.5 relative activity over Rd7BB (SEQ ID NO: 44))
B2 | + (>0.5 to 1.5 relative activity over Rd7BB (SEQ ID NO: 44))
B3 | + (>0.5 to 1.5 relative activity over Rd7BB (SEQ ID NO: 44))
B4 | ++ (>1.5 relative activity over Rd7BB (SEQ ID NO: 44))
B5 | + (>0.5 to 1.5 relative activity over Rd7BB (SEQ ID NO: 44))
B6 | + (>0.5 to 1.5 relative activity over Rd7BB (SEQ ID NO: 44))
B7 | − (<0.5 relative activity to Rd7BB (SEQ ID NO: 44))
B8 | + (>0.5 to 1.5 relative activity over Rd7BB (SEQ ID NO: 44))
B9 | + (>0.5 to 1.5 relative activity over Rd7BB (SEQ ID NO: 44))
B10 | + (>0.5 to 1.5 relative activity over Rd7BB (SEQ ID NO: 44))
B11 | + (>0.5 to 1.5 relative activity over Rd7BB (SEQ ID NO: 44))
B12 | − (<0.5 relative activity to Rd7BB (SEQ ID NO: 44))
B13 | + (>0.5 to 1.5 relative activity over Rd7BB (SEQ ID NO: 44))

Test: HTP-analysis of supernatants pretreated with base (MUGal hydrolysis)
Assay type: biochemical
Details: activity of the variant/activity of Rd7BB (SEQ ID NO: 44); challenge at pH 7.5
Procedure, shortened: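 GLA variants secreted from yeast INVSc1; culture supernatants pre-incubated with McIlvaine buffer pH 7.0–8.2 or 200 mM bicarbonate pH 9.1–9.7 at 37° C. for 1–18 h. Residual activity: MUGal (4 mM stock) hydrolysis at pH 4.3–4.8, 37° C., 30–180 min, carbonate quench; fluorescence Ex 355/Em 448 nm.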

Molecule | Relative Activity of GLA Variants After Challenge at pH 7.5
B1 | + (>0.5 to 1.5 relative activity over Rd7BB (SEQ ID NO: 44))
B2 | − (<0.5 relative activity to Rd7BB (SEQ ID NO: 44))
B3 | + (>0.5 to 1.5 relative activity over Rd7BB (SEQ ID NO: 44))
B4 | + (>0.5 to 1.5 relative activity over Rd7BB (SEQ ID NO: 44))
B5 | − (<0.5 relative activity to Rd7BB (SEQ ID NO: 44))
B6 | − (<0.5 relative activity to Rd7BB (SEQ ID NO: 44))
B7 | − (<0.5 relative activity to Rd7BB (SEQ ID NO: 44))
B8 | − (<0.5 relative activity to Rd7BB (SEQ ID NO: 44))
B9 | + (>0.5 to 1.5 relative activity over Rd7BB (SEQ ID NO: 44))
B10 | − (<0.5 relative activity to Rd7BB (SEQ ID NO: 44))
B11 | + (>0.5 to 1.5 relative activity over Rd7BB (SEQ ID NO: 44))
B12 | − (<0.5 relative activity to Rd7BB (SEQ ID NO: 44))
B13 | + (>0.5 to 1.5 relative activity over Rd7BB (SEQ ID NO: 44))

Test: HTP-analysis of supernatants pretreated with acid (MUGal hydrolysis)
Assay type: biochemical
Details: activity of the variant/activity of Rd7BB (SEQ ID NO: 44); challenge at pH 3.5
Procedure, shortened: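 Fluorescence of MUGal hydrolysis (Ex. 355 nm, Em. 448 nm) is read after sodium carbonate quench. The enzyme source is INVSc1 yeast culture supernatant, first exposed to pH 3.3-4.3 McIlvaine buffer at 37° C. for 1-3 h, then reacted at pH 4.8 for 30-180 minutes.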

Molecule | Relative Activity of GLA Variants After Challenge at pH 3.5
B1 | + (>0.5 to 1.5 relative activity over Rd7BB (SEQ ID NO: 44))
B2 | − (<0.5 relative activity to Rd7BB (SEQ ID NO: 44))
B3 | + (>0.5 to 1.5 relative activity over Rd7BB (SEQ ID NO: 44))
B4 | ++ (>1.5 relative activity over Rd7BB (SEQ ID NO: 44))
B5 | + (>0.5 to 1.5 relative activity over Rd7BB (SEQ ID NO: 44))
B6 | + (>0.5 to 1.5 relative activity over Rd7BB (SEQ ID NO: 44))
B7 | − (<0.5 relative activity to Rd7BB (SEQ ID NO: 44))
B8 | + (>0.5 to 1.5 relative activity over Rd7BB (SEQ ID NO: 44))
B9 | + (>0.5 to 1.5 relative activity over Rd7BB (SEQ ID NO: 44))
B10 | + (>0.5 to 1.5 relative activity over Rd7BB (SEQ ID NO: 44))
B11 | + (>0.5 to 1.5 relative activity over Rd7BB (SEQ ID NO: 44))
B12 | − (<0.5 relative activity to Rd7BB (SEQ ID NO: 44))
B13 | + (>0.5 to 1.5 relative activity over Rd7BB (SEQ ID NO: 44))
